The assay deals with His-tagged ER luminal domain of IRE1α (IRE1-NLD-His6-KDEL). Nature of the assay: SPR; IRE1-NLD amine-coupled on a CM5 chip (~1500 RU); COX-2 flowed at 0 to 10000 nM in 10 mM Hepes pH 7.4, 150 mM NaCl, 0.005% P20, 30 µl/min; BIACore T200; triplicate.

B1: COX-2 (prostaglandin endoperoxide synthase 2, PTGS2), purified His-tagged protein (enzyme)
chain: ANPCCSHPCQNRGVCMSVGFDQYKCDCTRTGFYGENCSTPEFLTRIKLFLKPTPNTVHYILTHFKGFWNVVNNIPFLRNAIMSYVLTSRSHLIDSPPTYNADYGYKSWEAFSNLSYYTRALPPVPDDCPTPLGVKGKKQLPDSNEIVEKLLLRRKFIPDPQGSNMMFAFFAQHFTHQFFKTDHKRGPAFTNGLGHGVDLNHIYGETLARQRKLRLFKDGKMKYQIIDGEMYPPTVKDTQAEMIYPPQVPEHLRFAVGQEVFGLVPGLMMYATIWLREHNRVCDVLKQEHPEWGDEQLFQTSRLILIGETIKIVIEDYVQHLSGYHFKLKFDPELLFNKQFQYQNRIAAEFNTLYHWHPLLPDTFQIHDQKYNYQQFIYNNSILLEHGITQFVESFTRQIAGRVAGGRNVPPAVQKVSQASIDQSRQMKYQSFNEYRKRFMLKPYESFEELTGEKEMSAELEALYGDIDAVELYPALLVEKPRPDAIFGETMVEVGAPFSLKGLMGNVICSPAYWKPSTFGGEVGFQIINTASIQSLICNNVKGCPFTSFSVPDPELIKTVTINASSSRSGLDDINPTVLLKERSTEL
modifications: red fluorescent tag, covalently labelled (only in the MST of Figure 4B)
For B1, the Kd turned out to be 880 nM.

The record behind these values is article PMC6232179.
